{"source": "paper PMC9817077", "about": "“Simple, Reliable Protocol for High-Yield Solubilization of Seedless Amyloid-β Monomer” (ACS Chemical Neuroscience, 2022)", "format_in_all_cases": "physicochemical", "key": {"[1]": {"assay": "SEC-MALS purification and analysis on Superdex 75", "description": "To perform a further test for the presence of seeds, and determine whether the detected oligomers affected the self-assembly kinetics, Aβ(1-42) samples were purified by SEC, and their self-assembly kinetics were compared to those of unpurified samples. In summary, following the protocol used by Hellstrand et al.,[39] […] The fraction eluting from 13.6 to 14.6 min (at 1 mL/min) was collected on ice, diluted variably (60, 80, or 100%, i.e., undiluted) in the elution buffer to give a range of concentrations, supplemented with ThT from a concentrated stock, and used in ThT assays. This purification procedure was repeated several times with reproducible results, and a representative elugram is shown in Figure 6a. The UV absorbance and RI elugrams are very similar to those previously reported for in-house recombinant peptide purified according to the same protocol,[39] and the peak at ∼14 min has already been identified as the monomer. MALS analysis of the ROI from 13.6 to 14.6 min was challenging, as the very weak scattering signal meant that the Mw estimates were particularly sensitive to baseline subtraction errors. Nonetheless, the average Mw value of this ROI across three concordant replicates was 6460 ± 712 Da, where the error margins represent one standard deviation, consistent with the peak containing mostly monomer with a small but significant amount of contaminating oligomer. […] Samples were analyzed and purified in small batches using an analytical Superdex 75 column (GE Healthcare) equilibrated in 20 mM sodium phosphate buffer (pH 8) with 200 μM EDTA and 1 mM NaN3. The column was run with the TIP pump from the AF4 system (Postnova Analytics, Landsberg am Lech, Germany), and in-line UV (280 nm; Shimadzu, U.K.), MALS (Postnova Analytics, Landsberg am Lech, Germany), and RI (Postnova Analytics, Landsberg am Lech, Germany) detectors. The RI detector was purged following equilibration, and the UV and RI detectors were then zeroed. The sample was injected, with an injection volume of 50 μL, and run at 1.0 mL/min for 35 min. Between sample runs, blanks consisting of the same solvent without the Aβ(1-42) were loaded to check that the column was clean and to allow blank subtraction of the detector signals. Data processing and estimation of sample concentration, molecular weight, and recovery were carried out in the AF2000 Control software (Postnova Analytics, Landsberg am Lech, Germany), with final data processing in GraphPad Prism version 8.3.0. For preparative runs, the sample was collected at the end. […] Eluted Aβ was mixed and split into three aliquots; these were then diluted to 60, 80, or 100% (i.e., undiluted) their concentration in the same elution buffer and supplemented with 20 μM ThT from a 2 mM stock, as described in Hellstrand et al.[39] […]"}, "[2]": {"assay": "Storage stability at −80 °C (ThT half-time against storage time)", "description": "To more quantitatively assess this stability, the mean fibrillization half-time τhalf of each ThT experiment was plotted against the storage time of the corresponding aliquot.\nEach point corresponds to the average fibrillization half-time of a single ThT experiment; the error bars, which in some cases are too small to show, represent a single standard deviation. The fitted curve is an exponential decay of the form τhalf = τhalf^′e^–kmodt, where τhalf is the self-assembly half-time, τhalf^′ is the half-time prior to the effects of storage, kmod is the proportional rate of change of τhalf during storage, and t is the storage time. See text for values of the fitted parameters and Table S2 for the correspondence between the color scheme and sample ID."}, "[3]": {"assay": "Removal of HMW material by ultracentrifugation, AF4-MALS and ThT", "conditions": "for integrated HMW UV signal after cross-flow, equivalent mass of Aβ(1-42): 200 µl injected", "description": "4 S3 Removal of HMW material from 50 mM NaOH Aβ\n5 preparations by ultracentrifugation\n8 that attempts to remove any putative seed or oligomers had no impact on the self-assembly 9 kinetics. To complement this, and further explore the nature of the HMW contaminant that 10 eluted after cross-ﬂow in AF4 runs, we removed the HMW material by ultracentrifugation 11 and examined the eﬀect on the self-assembly kinetics. Firstly, an Aβ(1-42) sample was re-12 solubilized to a concentration of 1 mg/ml peptide by sonication for 5 min in 50 mM NaOH.\n14 NaOH, centrifuged at 436,000g for 1 h, and examined by AF4-MALS and ThT assays. The 15 dilution was carried out to obtain a suﬃciently large volume for ultracentrifugation. As a 16 control, another aliquot from the same re-solubilized sample was diluted in the same manner, 17 and incubated in a centrifuge tube for the same period of time without ultracentrifugation.\n18 Both samples were kept at 21 °C during ultracentrifugation/incubation. For the AF4-MALS 19 experiments, a larger-than-usual injection volume of 200 µl was used to ensure the same mass […]\n21 the elugram. For the ThT assays, the buﬀer was pre-adjusted to account for the increased […]\n24 the integral of the UV signal after cross-ﬂow; in the control, the integrated HMW signal was […]\n26 so the true mass is unknown), whereas in the centrifuged sample the integral was equivalent […]\nSimilarly, ultracentrifugation caused an approximately 4× reduction\n28 in the integral of the LS 90o signal. Although the composition and degree of homogeneity of […]\n30 that the majority of this material was removed. Despite removal of this material, the treated […]\nOne possibility is that the HMW fraction\nHowever, the fact that the full expected 20 µg of\nInstead, it may consist of small quantities of dust\n36 or pre-existing contaminants in the vials, which were resistant to 50 mM NaOH but had no 37 observable seeding potential. […]\nthe self-assembly kinetics. Panels show (a) the UV280 signal, (b) the LS 90o signal, (c) the approximate Mw distribution, derived from MALS analysis of the ROI from 3.3-12.0 min using a linear Zimm ﬁtting approach, and (d) the corresponding ThT self-assembly kinetics […]\nColor scheme: red, 1 mg/ml sample before dilution (not included in ThT assay); green, 10× diluted 0.1 mg/ml sample, incubated for 1 h before use in experiments; blue, 10× diluted 0.1 mg/ml sample, centrifuged at 436,000g for 1 h and then used in experiments.\n(1 picture or pasted object on this page, not shown here)"}, "[4]": {"conditions": "436,000g for 1 h against control"}}, "data": [{"substance": "Aβ(1-42): Ultrapure recombinant Aβ(1-42) purchased from rPeptide, lyophilized from HFIP; disordered amyloid-forming peptide", "values": [{"measurement": "average Mw of the SEC ROI from 13.6 to 14.6 min", "setting": "[1]; 50 mM NaOH sample, Superdex 75, 20 mM sodium phosphate pH 8, 200 μM EDTA, 1 mM NaN3, 1 mL/min, three concordant replicates, ± SD", "result": "6460 ± 712", "unit": "Da"}, {"measurement": "total mass of Aβ(1-42) in the fraction collected from 13.6 to 14.6 min", "setting": "[1]; 50 μL of 1 mg/mL injected, Superdex 75, pH 8", "result": "28.4 ± 7.13", "unit": "µg"}, {"measurement": "concentration of the collected monomer fraction", "setting": "[1]; fraction 13.6–14.6 min", "result": 6.29, "unit": "µM"}, {"measurement": "recovery in the collected monomer fraction", "setting": "[1]; fraction 13.6–14.6 min, 50 μL of 1 mg/mL injected", "result": "56.8 % of the injected mass"}, {"measurement": "period of stability at −80 °C", "setting": "[2]; 5 min sonication in 50 mM NaOH, frozen in liquid N2", "result": "over 39 days"}, {"measurement": "rate constant kmod of decay of the self-assembly half-time during storage", "setting": "[2]; 5 min sonication in 50 mM NaOH, stored at −80 °C for 1 to 39 days, exponential fit, not significantly different from 0 (P = 0.3011)", "result": "6.53 × 10^–4 day^–1"}, {"measurement": "time constant τmod", "setting": "[2]; storage at −80 °C, from exponential fit", "result": 1530, "unit": "days"}, {"measurement": "integrated HMW UV signal after cross-flow, equivalent mass of Aβ(1-42)", "setting": "[3]; 0.1 mg/ml in 5 mM NaOH, centrifuged at 436,000g for 1 h, 21 °C", "result": 0.365, "unit": "µg"}, {"measurement": "reduction in the integral of the LS 90° signal by ultracentrifugation", "setting": "[3]; [4]", "result": "approximately 4 ×"}, {"measurement": "reduction in the integral of the UV signal after cross-flow by ultracentrifugation", "setting": "[3]; [4]", "result": "approximately 3 ×"}, {"measurement": "integrated HMW UV signal after cross-flow, equivalent mass of Aβ(1-42)", "setting": "[3]; control: 10× diluted to 0.1 mg/ml in 5 mM NaOH, incubated 1 h at 21 °C without ultracentrifugation", "result": 1.004, "unit": "µg"}]}]}
